Measured values published in the supplement of paper PMC11316812.
± gives the standard deviation of the averaged measurements.

Assays:
hTERT-HMEC = assay: percentage of EdU-negative (G0-arrested) nuclei per well, 72 h; higher = more G0 arrest; details: reference: sequence is the full UniProt precursor, the tested protein was the secreted form or ectodomain
MCF7 = assay: as above; details: reference: sequence is the full UniProt precursor, the tested protein was the secreted form or ectodomain
[1] = protein concentration 0.0225 µM
[2] = protein concentration 0.03125 µM
[3] = protein concentration 0.3125 µM
[4] = protein concentration 0.0257143 µM
[5] = protein concentration 0.257143 µM
[6] = protein concentration 0.0224225 µM
[7] = protein concentration 0.0243425 µM
[8] = protein concentration 0.028825 µM
[9] = protein concentration 0.224225 µM
[10] = protein concentration 0.243425 µM
[11] = protein concentration 0.28825 µM
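Further: secreted proteins added to cultured cells, EdU pulse at the end, nuclei found by Hoechst imaging, EdU status from nuclear versus surrounding ring intensity ratio, PBS as neutral control.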

MMCPLWRLLIFLGLLALPLAPHKQPWPGLAQAHRDNKSTLARIIAQGLIKHNAESRIQNIHFGDRLNASAQVAPGLVGWLISGRKHQQQQESSINITNIQLDCGGIQISFHKEWFSANISLEFDLELRPSFDNNIVKMCAHMSIVVEFWLEKDEFGRRDLVIGKCDAEPSSVHVAILTEAIPPKMNQFLYNLKENLQKVLPHMVESQVCPLIGEILGQLDVKLLKSLIEQEAAHEPTHHETSQPSACQAGESPS [Q9BQP9]
percentage of EdU-negative (hTERT-HMEC; [1]): 4.7 ± 0.18%
percentage of EdU-negative (hTERT-HMEC; protein concentration 0.225 µM): 12.1 ± 1.2%
percentage of EdU-negative (MCF7; [1]): 25.2 ± 1.2%
percentage of EdU-negative (MCF7; protein concentration 0.225 µM): 26.8 ± 0.78%

MALSFSLLMAVLVLSYKSICSLGCDLPQTHSLGNRRALILLAQMGRISHFSCLKDRHDFGFPEEEFDGHQFQKAQAISVLHEMIQQTFNLFSTEDSSAAWEQSLLEKFSTELYQQLNDLEACVIQEVGVEETPLMNEDSILAVRKYFQRITLYLTEKKYSPCAWEVVRAEIMRSLSFSTNLQKRLRRKD
percentage of EdU-negative (hTERT-HMEC; [2]): 9.16 ± 2.3%
percentage of EdU-negative (hTERT-HMEC; [3]): 13.8 ± 2.7%
percentage of EdU-negative (MCF7; [2]): 40.1 ± 1.1%
percentage of EdU-negative (MCF7; [3]): 46.8 ± 1.5%

MWNMLIVAMCLALLGCLQAQELQGHVSIILLGATGDLAKKYLWQGLFQLYLDEAGRGHSFSFHGAALTAPKQGQELMAKALESLSCPKDMAPSHCAEHKDQFLQLSQYRQLKTAEDYQALNKDIEAQLQHAGLREAGRIFYFSVPPFAYEDIARNINSSCRPGPGAWLRVVLEKPFGHDHFSAQQLATELGTFFQEEEMYRVDHYLGKQAVAQILPFRDQNRKALDGLWNRHHVERVEIIMKETVDAEGRTSFYEEYGVIRDVLQNHLTEVLTLVAMELPHNVSSAEAVLRHKLQVFQALRGLQRGSAVVGQYQSYSEQVRRELQKPDSFHSLTPTFAAVLVHIDNLRWEGVPFILMSGKALDERVGYARILFKNQACCVQSEKHWAAAQSQCLPRQLVFHIGHGDLGSPAVLVSRNLFRPSLPSSWKEMEGPPGLRLFGSPLSDYYAYSPVRERDAHSVLLSHIFHGRKNFFITTENLLASWNFWTPLLESLAHKAPRLYPGGAENGRLLDFEFSSGRLFFSQQQPEQLVPGPGPAPMPSDFQVLRAKYRESPLVSAWSEELISKLANDIEATAVRAVRRFGQFHLALSGGSSPVALFQQLATAHYGFPWAHTHLWLVDERCVPLSDPESNFQGLQAHLLQHVRIPYYNIHPMPVHLQQRLCAEEDQGAQIYAREISALVANSSFDLVLLGMGADGHTASLFPQSPTGLDGEQLVVLTTSPSQPHRRMSLSLPLINRAKKVAVLVMGRMKREITTLVSRVGHEPKKWPISGVLPHSGQLVWYMDYDAFLG
percentage of EdU-negative (hTERT-HMEC; [1]): 5.45 ± 1.2%
percentage of EdU-negative (hTERT-HMEC; protein concentration 0.225 µM): 7.4 ± 1.2%
percentage of EdU-negative (MCF7; [1]): 23.3 ± 2.2%
percentage of EdU-negative (MCF7; protein concentration 0.225 µM): 25.2 ± 1.6%

MAAARLCLSLLLLSTCVALLLQPLLGAQGAPLEPVYPGDNATPEQMAQYAADLRRYINMLTRPRYGKRHKEDTLAFSEWGSPHAAVPRELSPLDL
percentage of EdU-negative (hTERT-HMEC; [4]): 5.37 ± 1.1%
percentage of EdU-negative (hTERT-HMEC; [5]): 5.93 ± 0.18%
percentage of EdU-negative (MCF7; [4]): 20.5 ± 1.5%
percentage of EdU-negative (MCF7; [5]): 23.4 ± 3.6%

MPPRGPASELLLLRLLLLGAATAAPLAPRPSKEELTRCLAEVVTEVLTVGQVQRGPCTALLHKELCGTEPHGCASTEEKGLLLGDFKKQEAGKMRSSQEVRDEEEEEVAERTHKSEVQEQAIRMQGHRQLHQEEDEEEEKEERKRGPMETFEDLWQRHLENGGDLQKRVAEKASDKETAQFQAEEKGVRVLGGDRSLWQGAERGGGERREDLPHHHHHHHQPEAEPRQEKEEASEREEKEVEQLEHLRDELKKVTETLGEQLRREG [I3L3R5]
percentage of EdU-negative (hTERT-HMEC; [1]): 5.07 ± 1.4%
percentage of EdU-negative (hTERT-HMEC; protein concentration 0.225 µM): 7.54 ± 0.57%
percentage of EdU-negative (MCF7; [1]): 26.1 ± 0.53%
percentage of EdU-negative (MCF7; protein concentration 0.225 µM): 26.5 ± 0.58%

MGLEKPQSKLEGGMHPQLIPSVIAVVFILLLSVCFIASCLVTHHNFSRCKRGTGVHKLEHHAKLKCIKEKSELKSAEGSTWNCCPIDWRAFQSNCYFPLTDNKTWAESERNCSGMGAHLMTISTEAEQNFIIQFLDRRLSYFLGLRDENAKGQWRWVDQTPFNPRRVFWHKNEPDNSQGENCVVLVYNQDKWAWNDVPCNFEASRICKIPGTTLN [Q8WXI8]
percentage of EdU-negative (hTERT-HMEC; [1]): 6.12 ± 0.23%
percentage of EdU-negative (hTERT-HMEC; protein concentration 0.225 µM): 6.07 ± 0.51%
percentage of EdU-negative (MCF7; [1]): 23.5 ± 0.48%
percentage of EdU-negative (MCF7; protein concentration 0.225 µM): 25.2 ± 0.46%

MRACISLVLAVLCGLAWAGKIESCASRCNEKFNRDAACQCDRRCLWHGNCCEDYEHLCTEDHKESEPLPQLEEETEEALASNLYSAPTSCQGRCYEAFDKHHQCHCNARCQEFGNCCKDFESLCSDHEVSHSSDAITKEEIQSISEKIYRADTNKAQKEDIVLNSQNCISPSETRNQVDRCPKPLFTYVNEKLFSKPTYAAFINLLNNYQRATGHGEHFSAQELAEQDAFLREIMKTAVMKELYSFLHHQNRYGSEQEFVDDLKNMWFGLYSRGNEEGDSSGFEHVFSGEVKKGKVTGFHNWIRFYLEEKEGLVDYYSHIYDGPWDSYPDVLAMQFNWDGYYKEVGSAFIGSSPEFEFALYSLCFIARPGKVCQLSLGGYPLAVRTYTWDKSTYGNGKKYIATAYIVSST
percentage of EdU-negative (hTERT-HMEC; [6]): 5.37 ± 0.81%
percentage of EdU-negative (hTERT-HMEC; [7]): 4.65 ± 0.23%
percentage of EdU-negative (hTERT-HMEC; [8]): 5.03 ± 0.15%
percentage of EdU-negative (hTERT-HMEC; [9]): 5.94 ± 0.48%
percentage of EdU-negative (hTERT-HMEC; [10]): 8.43 ± 1.2%
percentage of EdU-negative (hTERT-HMEC; [11]): 6.74 ± 0.95%
percentage of EdU-negative (MCF7; [6]): 25.11 ± 0.21%
percentage of EdU-negative (MCF7; [7]): 25.2 ± 1.4%
percentage of EdU-negative (MCF7; [8]): 24.16 ± 0.045%
percentage of EdU-negative (MCF7; [9]): 28.6 ± 2.5%
percentage of EdU-negative (MCF7; [10]): 27.3 ± 0.39%
percentage of EdU-negative (MCF7; [11]): 27.382 ± 0.0011%
